According to article PMC12102759 (2025):

B1: AMOTL2 peptide 64-79 (Angiomotin-like protein 2), 16-mer library wild type / TNKS ANK (TNKS 12 ANK repeats, residues 174-649) (parent complex)
chain 1: QVLQQATRQEPQGQEH
chain 2: TGVPAVSGALRELLEACRNGDVSRVKRLVDAANVNAKDMAGRKSSPLHFAAGFGRKDVVEHLLQMGANVHARDDGGLIPLHNACSFGHAEVVSLLLCQGADPNARDNWNYTPLHEAAIKGKIDVCIVLLQHGADPNIRNTDGKSALDLADPSAKAVLTGEYKKDELLEAARSGNEEKLMALLTPLNVNCHASDGRKSTPLHLAAGYNRVRIVQLLLQHGADVHAKDKGGLVPLHNACSYGHYEVTELLLKHGACVNAMDLWQFTPLHEAASKNRVEVCSLLLSHGADPTLVNCHGKSAVDMAPTPELRERLTYEFKGHSLLQAAREADLAKVKKTLALEIINFKQPQSHETALHCAVASLHPKRKQVTELLLRKGANVNEKNKDFMTPLHVAAERAHNDVMEVLHKHGAKMNALDTLGQTALHRAALAGHLQTCRLLLSYGSDPSIISLQGFTAAQMGNEAVQQILSESTPIRTSD
B2: RNF115 peptide 69-84 (E3 ubiquitin-protein ligase RNF115), 16-mer library wild type / MDM2 SWIB (MDM2 SWIB/MDM2 domain, residues 17-125) (parent complex)
chain 1: THFAELWGHLDHTMFF
chain 2: SQIPASEQETLVRPKPLLLKLLKSVGAQKDTYTMKEVLFYLGQYIMTKRLYDEKQQHIVYCSNDLLGDLFGVPSFSVKEHRKIYTMIYRNLVVVNQQESSDSGTSVSEN

Variants of: B1
Test: proteomic peptide phage display deep mutational scan (ProP-PD DMS): M13 P8 16-mer library selected against immobilised GST-tagged bait for four days (rounds), NGS of the eluted pools per day and pseudo-replica; bait immobilised on MaxiSorp plates (10 µg), library pre-cleared on GST, 2 h binding at 4 °C, five washes; one round per day, days 1-4; value from days 2 and 3
For chain 1 QVLQQATRQEPQGMEH [chain 1 Q14M], the screen value was 0.000951 average fractional NGS count over selection days 2 and 3 (reads of this peptide / all reads for the bait, averaged over …. In the case of chain 1 QVLQQATRQEPQGYEH [chain 1 Q14Y], the screen value is reported as 0.000143 average fractional NGS count over selection days 2 and 3 (reads of this peptide / all reads for the bait, averaged over …. In the case of chain 1 QVLQQATRQEPQGVEH [chain 1 Q14V], the screen value is reported as 0.000381 average fractional NGS count over selection days 2 and 3 (reads of this peptide / all reads for the bait, averaged over …. In the case of chain 1 QILQQATRQEPQGQEH [chain 1 V2I], the screen value is reported as 0.0014 average fractional NGS count over selection days 2 and 3 (reads of this peptide / all reads for the bait, averaged over …. In the case of chain 1 QDLQQATRQEPQGQEH [chain 1 V2D], the screen value is reported as 0.000341 average fractional NGS count over selection days 2 and 3 (reads of this peptide / all reads for the bait, averaged over …. In the case of chain 1 QTLQQATRQEPQGQEH [chain 1 V2T], the screen value is reported as 0.00555 average fractional NGS count over selection days 2 and 3 (reads of this peptide / all reads for the bait, averaged over …. chain 1 QSLQQATRQEPQGQEH [chain 1 V2S] was tested, and the screen value was 0.000464 average fractional NGS count over selection days 2 and 3 (reads of this peptide / all reads for the bait, averaged over …. chain 1 QRLQQATRQEPQGQEH [chain 1 V2R] was tested, and the screen value was 0.000931 average fractional NGS count over selection days 2 and 3 (reads of this peptide / all reads for the bait, averaged over …. chain 1 QELQQATRQEPQGQEH [chain 1 V2E] was tested, and the screen value was 0.00192 average fractional NGS count over selection days 2 and 3 (reads of this peptide / all reads for the bait, averaged over …. chain 1 QMLQQATRQEPQGQEH [chain 1 V2M] was tested, and the screen value was 0.000248 average fractional NGS count over selection days 2 and 3 (reads of this peptide / all reads for the bait, averaged over …. In the case of chain 1 QVLQQQTRQEPQGQEH [chain 1 A6Q], the screen value is reported as 0.00606 average fractional NGS count over selection days 2 and 3 (reads of this peptide / all reads for the bait, averaged over …. In the case of chain 1 QVLQQTTRQEPQGQEH [chain 1 A6T], the screen value is reported as 0.000175 average fractional NGS count over selection days 2 and 3 (reads of this peptide / all reads for the bait, averaged over …. For chain 1 QVLQQFTRQEPQGQEH [chain 1 A6F], the screen value was 0.00286 average fractional NGS count over selection days 2 and 3 (reads of this peptide / all reads for the bait, averaged over …. With chain 1 QVLQQNTRQEPQGQEH [chain 1 A6N] the screen value was 0.000341 average fractional NGS count over selection days 2 and 3 (reads of this peptide / all reads for the bait, averaged over …. In the case of chain 1 QVLQQETRQEPQGQEH [chain 1 A6E], the screen value is reported as 0.000304 average fractional NGS count over selection days 2 and 3 (reads of this peptide / all reads for the bait, averaged over …. For chain 1 QVLQQDTRQEPQGQEH [chain 1 A6D], the screen value was 0.000263 average fractional NGS count over selection days 2 and 3 (reads of this peptide / all reads for the bait, averaged over …. chain 1 QVLQQMTRQEPQGQEH [chain 1 A6M] was tested, and the screen value was 0.000267 average fractional NGS count over selection days 2 and 3 (reads of this peptide / all reads for the bait, averaged over …. In the case of chain 1 QVLQQLTRQEPQGQEH [chain 1 A6L], the screen value is reported as 0.000992 average fractional NGS count over selection days 2 and 3 (reads of this peptide / all reads for the bait, averaged over …. For chain 1 QVLQQSTRQEPQGQEH [chain 1 A6S], the screen value was 0.000255 average fractional NGS count over selection days 2 and 3 (reads of this peptide / all reads for the bait, averaged over …. chain 1 QVLQPATRQEPQGQEH [chain 1 Q5P] was tested, and the screen value was 0.000503 average fractional NGS count over selection days 2 and 3 (reads of this peptide / all reads for the bait, averaged over …. For chain 1 QVLQIATRQEPQGQEH [chain 1 Q5I], the screen value was 0.00183 average fractional NGS count over selection days 2 and 3 (reads of this peptide / all reads for the bait, averaged over …. For chain 1 QVLQRATRQEPQGQEH [chain 1 Q5R], the screen value was 0.000183 average fractional NGS count over selection days 2 and 3 (reads of this peptide / all reads for the bait, averaged over …. For chain 1 QVLQYATRQEPQGQEH [chain 1 Q5Y], the screen value was 0.000959 average fractional NGS count over selection days 2 and 3 (reads of this peptide / all reads for the bait, averaged over …. In the case of chain 1 QVLQHATRQEPQGQEH [chain 1 Q5H], the screen value is reported as 0.0129 average fractional NGS count over selection days 2 and 3 (reads of this peptide / all reads for the bait, averaged over …. In the case of chain 1 QVLQAATRQEPQGQEH [chain 1 Q5A], the screen value is reported as 0.000657 average fractional NGS count over selection days 2 and 3 (reads of this peptide / all reads for the bait, averaged over …. With chain 1 QVLQLATRQEPQGQEH [chain 1 Q5L] the screen value was 0.00018 average fractional NGS count over selection days 2 and 3 (reads of this peptide / all reads for the bait, averaged over …. For chain 1 QVLQTATRQEPQGQEH [chain 1 Q5T], the screen value was 0.00669 average fractional NGS count over selection days 2 and 3 (reads of this peptide / all reads for the bait, averaged over …. For chain 1 QVLQMATRQEPQGQEH [chain 1 Q5M], the screen value was 0.000456 average fractional NGS count over selection days 2 and 3 (reads of this peptide / all reads for the bait, averaged over ….

Variants of: B2
Test: as above
For chain 1 F15H, the screen value was 0.000286 average fractional NGS count over selection days 2 and 3 (reads of this peptide / all reads for the bait, averaged over …. With chain 1 F15S the screen value was 0.0126 average fractional NGS count over selection days 2 and 3 (reads of this peptide / all reads for the bait, averaged over …. In the case of chain 1 F15M, the screen value is reported as 0.0114 average fractional NGS count over selection days 2 and 3 (reads of this peptide / all reads for the bait, averaged over …. With chain 1 F15R the screen value was 0.00042 average fractional NGS count over selection days 2 and 3 (reads of this peptide / all reads for the bait, averaged over …. In the case of chain 1 H12V, the screen value is reported as 0.000717 average fractional NGS count over selection days 2 and 3 (reads of this peptide / all reads for the bait, averaged over …. chain 1 H12L was tested, and the screen value was 0.000337 average fractional NGS count over selection days 2 and 3 (reads of this peptide / all reads for the bait, averaged over …. With chain 1 H12S the screen value was 0.00289 average fractional NGS count over selection days 2 and 3 (reads of this peptide / all reads for the bait, averaged over …. For chain 1 H12N, the screen value was 0.00222 average fractional NGS count over selection days 2 and 3 (reads of this peptide / all reads for the bait, averaged over …. In the case of chain 1 H9K, the screen value is reported as 0.0135 average fractional NGS count over selection days 2 and 3 (reads of this peptide / all reads for the bait, averaged over …. With chain 1 H9A the screen value was 0.00146 average fractional NGS count over selection days 2 and 3 (reads of this peptide / all reads for the bait, averaged over …. In the case of chain 1 T1F, the screen value is reported as 0.000233 average fractional NGS count over selection days 2 and 3 (reads of this peptide / all reads for the bait, averaged over …. With chain 1 T1D the screen value was 0.000599 average fractional NGS count over selection days 2 and 3 (reads of this peptide / all reads for the bait, averaged over …. chain 1 T1H was tested, and the screen value was 0.00126 average fractional NGS count over selection days 2 and 3 (reads of this peptide / all reads for the bait, averaged over …. For chain 1 D11Q, the screen value was 0.000111 average fractional NGS count over selection days 2 and 3 (reads of this peptide / all reads for the bait, averaged over …. For chain 1 H2I, the screen value was 0.000473 average fractional NGS count over selection days 2 and 3 (reads of this peptide / all reads for the bait, averaged over …. For chain 1 H2Q, the screen value was 0.00104 average fractional NGS count over selection days 2 and 3 (reads of this peptide / all reads for the bait, averaged over …. chain 1 H2E was tested, and the screen value was 0.000801 average fractional NGS count over selection days 2 and 3 (reads of this peptide / all reads for the bait, averaged over …. For chain 1 H2G, the screen value was 0.0014 average fractional NGS count over selection days 2 and 3 (reads of this peptide / all reads for the bait, averaged over …. In the case of chain 1 G8N, the screen value is reported as 0.00558 average fractional NGS count over selection days 2 and 3 (reads of this peptide / all reads for the bait, averaged over …. chain 1 G8T was tested, and the screen value was 0.00199 average fractional NGS count over selection days 2 and 3 (reads of this peptide / all reads for the bait, averaged over …. With chain 1 A4P the screen value was 0.000473 average fractional NGS count over selection days 2 and 3 (reads of this peptide / all reads for the bait, averaged over …. With chain 1 L10M the screen value was 0.00099 average fractional NGS count over selection days 2 and 3 (reads of this peptide / all reads for the bait, averaged over …. For chain 1 T13W, the screen value was 0.000505 average fractional NGS count over selection days 2 and 3 (reads of this peptide / all reads for the bait, averaged over …. For chain 1 T13P, the screen value was 0.000265 average fractional NGS count over selection days 2 and 3 (reads of this peptide / all reads for the bait, averaged over …. In the case of chain 1 T13G, the screen value is reported as 0.00624 average fractional NGS count over selection days 2 and 3 (reads of this peptide / all reads for the bait, averaged over …. For chain 1 T13Q, the screen value was 0.000442 average fractional NGS count over selection days 2 and 3 (reads of this peptide / all reads for the bait, averaged over …. In the case of chain 1 M14F, the screen value is reported as 0.000469 average fractional NGS count over selection days 2 and 3 (reads of this peptide / all reads for the bait, averaged over …. In the case of chain 1 M14E, the screen value is reported as 0.000177 average fractional NGS count over selection days 2 and 3 (reads of this peptide / all reads for the bait, averaged over …. With chain 1 L6M the screen value was 0.000951 average fractional NGS count over selection days 2 and 3 (reads of this peptide / all reads for the bait, averaged over …. chain 1 L6V was tested, and the screen value was 0.000773 average fractional NGS count over selection days 2 and 3 (reads of this peptide / all reads for the bait, averaged over …. For chain 1 E5S, the screen value was 0.00184 average fractional NGS count over selection days 2 and 3 (reads of this peptide / all reads for the bait, averaged over …. In the case of chain 1 E5V, the screen value is reported as 0.000931 average fractional NGS count over selection days 2 and 3 (reads of this peptide / all reads for the bait, averaged over ….
